Measured values reported in the RNAGym collection of RNA variant scans (doi:10.1073/pnas.2313332121).
This sample holds only a part of the variants without activity.

B1: TPR 5TU (parent)
chain: GGAUCUUCUCGAUCUAACAAAAAAGACAAAUCUGCCACAAAGCUUGAGAGCAUCUUCGGAUGCAGAGGCGGCAGCCUUCGGUGGCGCGAUAGCGCCAACGUUCUCAACUAUGACACGCAAAACGCGUGCUCCGUUGAAUGGAGUUUAUCAUG

Variants of: B1
Assay: polymerase ribozyme fitness, log enrichment relative to wild type (log ratio); higher = more active; in vitro selection for triplet polymerase activity
Summary of the method: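 In triplicate, a single round of in vitro selection was run on each mutant library, PCR-built and transcribed, covering one subunit of a heterodimeric triplet polymerase ribozyme. Frozen incubation at −7 °C followed annealing with a biotinylated primer, partner subunit and triplets, and extended constructs were then gel-excised, streptavidin-captured and taken through RT-PCR. Fitness is the logarithm of genotype enrichment over wild-type enrichment, from inverse-variance-weighted replicate averages of Illumina-sequenced inputs and outputs. […] only genotypes with ≥10 input reads and ≥1 read per output were kept.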

| Variant | polymerase ribozyme fitness (log ratio) |
| --- | --- |
| C27U C95A A138G | ≤ -4.2 |
| A28U C51A A52C C76U U78G A89G | ≤ -4.2 |
| A28C G81C G92U C103G | ≤ -4.2 |
| A28U C54G C69U C79U A91U U134G | ≤ -4.2 |
| A29U A40G U53A C95G | ≤ -4.2 |
| A29U A37C U55G U135C | ≤ -4.2 |
| C27U C54G G84A C95G A122G | -2.89 |
| A29C C76A A91U A110G | ≤ -4.2 |
| A28U C38A C63U G83A C103A | ≤ -4.2 |
| A29C A41G G46U A49G C75U G83A A121G G152U | ≤ -4.2 |
| A30C C54U G70U C93A A120U U130A A138G | ≤ -4.2 |
| A28G U61G C75A C93U U104G U135A | ≤ -4.2 |
| A28C C87A C108G U146C | ≤ -4.2 |
| A29U C38U A64U G88A A97U C116U | ≤ -4.2 |
| A29C C108A A142U | ≤ -4.2 |
| A29C A49U A150C | ≤ -4.2 |
| A28U G133U A137C | ≤ -4.2 |
| A30C C93U | ≤ -4.2 |
| A30U A39U G62A G70A A89C C129A A142C | ≤ -4.2 |
| A28C G42A A113U C116U | ≤ -4.2 |
| A29G G34A U56A C75U | ≤ -4.2 |
| A30U U56G G58U A73G C85U C105U G141C | ≤ -4.2 |
| C27U G62C C63U G94U U104C G152U | ≤ -4.2 |
| A29G A49G C51U G70A A107U | ≤ -4.2 |

| Variant | polymerase ribozyme fitness (log ratio) |
| --- | --- |
| A28G G42U G88A C93U C118A | ≤ -4.2 |
| C27U U101C | -0.938 |
| A28U A49C G58C G59A G84U U146A C149U | ≤ -4.2 |
| C27U G58A C63A G84U | -2.45 |
| A30C U44A C51U U77C C131G | ≤ -4.2 |
| A30C C75G G81U C87U A120U | -4.16 |
| A28G C57G G84A A98G C114U | ≤ -4.2 |
| A30U G94A G141A | ≤ -4.2 |
| A30G G46A G70C U78G G86C A142C U146A | ≤ -4.2 |
| A30G A37C G94C | ≤ -4.2 |
| A29C C96A U102G G124U | ≤ -4.2 |
| A30G G71C U78A C95G A115C | ≤ -4.2 |
| A28C A39C | ≤ -4.2 |
| A30U C93U | -3.92 |
| A28U C93G | ≤ -4.2 |
| A29U C95A U134C G140C | ≤ -4.2 |
| A28C G94C | -4.04 |
| C27U G67A C75U G86C U144C C149A A150G | ≤ -4.2 |
| A30C U31A C75A C79A U144A | ≤ -4.2 |
| A30G A41G A52G | -2.03 |
| C27U C76G G88A C93G G100U | ≤ -4.2 |
| A28U C35U C87G C103U A121G A122G | ≤ -4.2 |
| A30C C32U C36U G70U U139A A142C | ≤ -4.2 |
| A28U C116G | -3.74 |

| Variant | polymerase ribozyme fitness (log ratio) |
| --- | --- |
| A29G U78C | ≤ -4.2 |
| A30G A60C G67U G68U G84U G117A U139A | ≤ -4.2 |
| A29U A40C G62U G70A G84A C96A U139C | ≤ -4.2 |
| C27U C54G C87U G92A C118A U144G | -3.12 |
| A29C C35A U53A C57U G92A C118U A122G G136A C149U | ≤ -4.2 |
| A28U G59A | ≤ -4.2 |
| A28U A110C | ≤ -4.2 |
| A28C A40C G48U G50C C95U G117C A119U C123U | ≤ -4.2 |
| C27U A73G C79A G140C | ≤ -4.2 |
| A30C A73U C85G C93G C96G C149U | ≤ -4.2 |
| A29U G46C G83C C108U | ≤ -4.2 |
| A30C A60C | ≤ -4.2 |
| A28G A49G C54U C85A U144G | ≤ -4.2 |
| C27G U55A A60G C125U | ≤ -4.2 |
| A28U G50C | ≤ -4.2 |
| A29U U61A G74U C118A U130A | ≤ -4.2 |
| A30U G100U | ≤ -4.2 |
| A28G A37U C57A C123U G143C | ≤ -4.2 |
| A29U G68A G81A | ≤ -4.2 |
| A29G C57G G136U | ≤ -4.2 |
| A29G G68C C96U U102G U135G C149A | ≤ -4.2 |
| A28U A52C | -3.54 |
| C27U A30C C87G G128A C131A U134C G141U | -4.13 |
| A30U A89U C93U A120G C125G G141A G143A A147C | ≤ -4.2 |

| Variant | polymerase ribozyme fitness (log ratio) |
| --- | --- |
| A29G A98G | ≤ -4.2 |
| C27U U56A | -1.67 |
| A30U G58C C95U U135C U144A | ≤ -4.2 |
| A30U C85A C95A C125A U148A | ≤ -4.2 |
| A29C C79G C96U U104C | ≤ -4.2 |
| A29G C54U G59A C76U U82C G88C C95G C96G | ≤ -4.2 |
| C27U A52G U53A C118G | -2.63 |
| A29U G50U U55A G86C G141C | ≤ -4.2 |
| C27U G46A C54U C85G | -3.63 |
| C27G U56A C99A | ≤ -4.2 |
| A29U A142C | -4.15 |
| C27U A29C U44A U55A C95G G117U | ≤ -4.2 |
| A30C C38U G74A | ≤ -4.2 |
| C27U U53A | -2.76 |
| A30U U56A C93U G141A | ≤ -4.2 |
| A29G C85A C114A A121G U134C | ≤ -4.2 |
| C27G U44G A89C A142U | ≤ -4.2 |
| A28G A37C A41C C69A C85U G133C | ≤ -4.2 |
| A30G A37U G50A G83C | ≤ -4.2 |
| C27G U33C U55A A97C A121G | ≤ -4.2 |
| A30U C38G C93U | ≤ -4.2 |
| A28G U33A A40U C87U G92A U127A G152U | -3.85 |
| C27U C96A C105G | -2.96 |
| A30U G50C G71C A107G | ≤ -4.2 |

| Variant | polymerase ribozyme fitness (log ratio) |
| --- | --- |
| A29U C57A U61A A121U | ≤ -4.2 |
| A28U U82C C93U C96G C105A | ≤ -4.2 |
| C27G U33A U55A C87A A98C U104G U148A | ≤ -4.2 |
| A29C G88C G92U | ≤ -4.2 |
| A29C G68A G92C G133A | ≤ -4.2 |
| A29C A30U A89C | ≤ -4.2 |
| A30C C69G C76A G94A G140A | ≤ -4.2 |
| A28C U31A A91G U104C | ≤ -4.2 |
| A29U G50U G59A C87A | ≤ -4.2 |
| A30C G71U A98G C103G | ≤ -4.2 |
| A29U C32G C75U U77G G80A | ≤ -4.2 |
| C27G U44G G58C G71C C93G G94A U101A U102A | ≤ -4.2 |
| A29C U33A A41C U45A A91G | ≤ -4.2 |
| A30C G42U C54U C63G G68A C93U A121G G140A | ≤ -4.2 |
| A28G G58C C87U C99U | ≤ -4.2 |
| A29C U31G C95A A119G A142C G152U | ≤ -4.2 |
| A28G U53A U144G | ≤ -4.2 |
| A29U C54U U78C C99G C116U | ≤ -4.2 |
| C27U C131U | 0.137 |
| A28C A49U U55A U61A C76A A142C U146A | ≤ -4.2 |
| A30U C38U G50C U56G G83U A137C | ≤ -4.2 |
| A29U G124U | ≤ -4.2 |
| A28G C36U C87A A119U G133A | ≤ -4.2 |
| A28U U45A U78G G81C C116G G136U | ≤ -4.2 |

| Variant | polymerase ribozyme fitness (log ratio) |
| --- | --- |
| C27U G50U C95U C114U C118G A138U | ≤ -4.2 |
| C27G U61A C93U C95U A97U G133U | ≤ -4.2 |
| A28U A37C | -3.93 |
| C27G U61A A66G C76A C85A G141A | ≤ -4.2 |
| A29G G86U U102G U134G G140U C149A | ≤ -4.2 |
| C27U U101G G136A | -1.57 |
| A30C U55A C57G C93U C105G G124U | ≤ -4.2 |
| A30C G83C U101G A121U | ≤ -4.2 |
| C27U A41C A73G C75U C93A | ≤ -4.2 |
| A30U A39C A49C U104C C125G | ≤ -4.2 |
| A28U C36A A47G G59A C85A C129U U145A | ≤ -4.2 |
| A28C G124C | ≤ -4.2 |
| C27U A52C C85G C116G G128U A137G | ≤ -4.2 |
| A28G C76A A107G G141U U148C | ≤ -4.2 |
| A28U G86A | -4.08 |
| A29C U55A U77G U101G U146A U148G | ≤ -4.2 |
| A28G G86U | -3.52 |
| A30C C36A A52G C108A G152A | ≤ -4.2 |
| A28U C99G | -3.72 |
| C27G U77A G86U A115G C131U G143C U151G | ≤ -4.2 |
| A29C A52C C76U C96A U135G A147C | -4.08 |
| A28C A37G A47G A66C G86A A107U U135C | ≤ -4.2 |
| A30C G46C A73G G80C G84A A91G | ≤ -4.2 |
| A30U C95A | -3.34 |

| Variant | polymerase ribozyme fitness (log ratio) |
| --- | --- |
| A29U G112C A121G G136U A137G U145A | ≤ -4.2 |
| A28U A41C C54A A60C C96A C105U A106U | ≤ -4.2 |
| A28U A60C A91G A98U | ≤ -4.2 |
| A28U G80U | -4.11 |
| C27U A60G C93A C125G G136A | -2.85 |
| A28C C32U U45A U61G U78G G92C C93A U101G C132A A150C | ≤ -4.2 |
| C27U U55G U61A C87G | ≤ -4.2 |
| C27U U31C A52G U134C | -0.377 |
| A29G U53A A110G A120U C123G | ≤ -4.2 |
| C27U U45A G81A G124U | ≤ -4.2 |
| A30G C79U G140C | ≤ -4.2 |
| C27U A37C G50U C95A | -2.6 |
| A28U G88C A91U C118A | ≤ -4.2 |
| A28U C32A G50C C96A A106G U127G | ≤ -4.2 |
| A28U G48C C75U U90G G117A C129G | ≤ -4.2 |
| U31A A47G A73U G83A | -3.5 |
| A29C C57U U104G G128U | ≤ -4.2 |
| A28U A49C U56A C95A C96U C108U G128U | ≤ -4.2 |
| A28U C69A C75U U139G | ≤ -4.2 |
| A29U A40C U56A G88A A121U G126A G136A | -3.9 |
| A28U C51A C54U C85U C123G C129U | ≤ -4.2 |
| A28C G68A G92C A122G C132G | -3.62 |
| A30U C32A C54U C87A A107U | ≤ -4.2 |
